Measurements from article doi:10.1101/2020.02.01.930206 (bioRxiv, 2020).

B1: human CIAO1-CIAO2B core complex (complex)
chain 1: not shown
chain 2: MVGGGGVGGGLLENANPLIYQRSGERPVTAGEEDEQVPDSIDAREIFDLIRSINDPEHPLTLEELNVVEQVRVQVSDPESTVAVAFTPTIPHCSMATLIGLSIKVKLLRSLPQRFKMDVHITPGTHASEHAVNKQLADKERVAAALENTHLLEVVNQCLSARS
B2: human MMS19^710-1030-CIAO1-CIAO2B complex (complex)
chain 1: GQRRLIALLMAFVCSLPRNVEIPQLNQLMRELLELSCCHSCPFSSTAAAKCFAGLLNKHPAGQQLDEFLQLAVDKVEAGLGSGPCRSQAFTLLLWVTKALVLRYHPLSSCLTARLMGLLSDPELGPAAADGFSLLMSDCTDVLTRAGHAEVRIMFRQRFFTDNVPALVQGFHAAPQDVKPNYLKGLSHVLNRLPKPVLLPELPTLLSLLLEALSCPDCVVQLSTLSCLQPLLLEAPQVMSLHVDTLVTKFLNLSSSPSMAVRIAALQCMHALTRLPTPVLLPYKPQVIRALAKPLDDKKRLVRKEAVSARGEWFLLGSPGS
chain 2: not shown
chain 3: B1 chain 2
B3: full-length mouse MMS19 (natural protein)
chain: MAAATGLEEAVAPMGALCGLVQDFVMGQQEGPADQVAADVKSGGYTVLQVVEALGSSLENAEPRTRARGAQLLSQVLLQCHSLLSEKEVVHLILFYENRLKDHHLVVPSVLQGLRALSMSVALPPGLAVSVLKAIFQEVHVQSLLQVDRHTVFSIITNFMRSREEELKGLGADFTFGFIQVMDGEKDPRNLLLAFRIVHDLISKDYSLGPFVEELFEVTSCYFPIDFTPPPNDPYGIQREDLILSLRAVLASTPRFAEFLLPLLIEKVDSEILSAKLDSLQTLNACCAVYGQKELKDFLPSLWASIRREVFQTASERVEAEGLAALHSLTACLSCSVLRADAEDLLGSFLSNILQDCRHHLCEPDMKLVWPSAKLLQAAAGASARACEHLTSNVLPLLLEQFHKHSQSNQRRTILEMILGFLKLQQKWSYEDRDERPLSSFKDQLCSLVFMALTDPSTQLQLVGIRTLTVLGAQPGLLSAEDLELAVGHLYRLTFLEEDSQSCRVAALEASGTLATLYPGAFSRHLLPKLAEELHKGESDVARADGPTKCSRHFRCLQALSAVSTHPSIVKETLPLLLQHLCQANKGNMVTESSEVVAVCQSLQQVAEKCQQDPESYWYFHKTAVPCLFALAVQASMPEKESSVLRKVLLEDEVLAALASVIGTATTHLSPELAAQSVTCIVPLFLDGNTSFLPENSFPDQFQPFQDGSSGQRRLVALLTAFVCSLPRNVEIPQLNRLMRELLKQSCGHSCPFSSTAATKCFAGLLNKQPPGQQLEEFLQLAVGTVEAGLASESSRDQAFTLLLWVTKALVLRYHPLSACLTTRLMGLLSDPELGCAAADGFSLLMSDCTDVLTRAGHADVRIMFRQRFFTDNVPALVQGFHAAPQDVKPNYLKGLSHVLNRLPKPVLLPELPTLLSLLLEALSCPDSVVQLSTLSCLQPLLLEAPQIMSLHVDTLVTKFLNLSSSYSMAVRIAALQCMHALTRLPTSVLLPYKSQVIRALAKPLDDKKRLVRKEAVSARGEWFLLGSPGS
B4: human MMS19 (subunit of the purified CTC) (natural protein)
chain: MAAAAAVEAAAPMGALWGLVHDFVVGQQEGPADQVAADVKSGNYTVLQVVEALGSSLENPEPRTRARAIQLLSQVLLHCHTLLLEKEVVHLILFYENRLKDHHLVIPSVLQGLKALSLCVALPPGLAVSVLKAIFQEVHVQSLPQVDRHTVYNIITNFMRTREEELKSLGADFTFGFIQVMDGEKDPRNLLVAFRIVHDLISRDYSLGPFVEELFEVTSCYFPIDFTPPPNDPHGIQREDLILSLRAVLASTPRFAEFLLPLLIEKVDSEVLSAKLDSLQTLNACCAVYGQKELKDFLPSLWASIRREVFQTASERVEAEGLAALHSLTACLSRSVLRADAEDLLDSFLSNILQDCRHHLCEPDMKLVWPSAKLLQAAAGASARACDSVTSNVLPLLLEQFHKHSQSSQRRTILEMLLGFLKLQQKWSYEDKDQRPLNGFKDQLCSLVFMALTDPSTQLQLVGIRTLTVLGAQPDLLSYEDLELAVGHLYRLSFLKEDSQSCRVAALEASGTLAALYPVAFSSHLVPKLAEELRVGESNLTNGDEPTQCSRHLCCLQALSAVSTHPSIVKETLPLLLQHLWQVNRGNMVAQSSDVIAVCQSLRQMAEKCQQDPESCWYFHQTAIPCLLALAVQASMPEKEPSVLRKVLLEDEVLAAMVSVIGTATTHLSPELAAQSVTHIVPLFLDGNVSFLPENSFPSRFQPFQDGSSGQRRLIALLMAFVCSLPRNVEIPQLNQLMRELLELSCCHSCPFSSTAAAKCFAGLLNKHPAGQQLDEFLQLAVDKVEAGLGSGPCRSQAFTLLLWVTKALVLRYHPLSSCLTARLMGLLSDPELGPAAADGFSLLMSDCTDVLTRAGHAEVRIMFRQRFFTDNVPALVQGFHAAPQDVKPNYLKGLSHVLNRLPKPVLLPELPTLLSLLLEALSCPDCVVQLSTLSCLQPLLLEAPQVMSLHVDTLVTKFLNLSSSPSMAVRIAALQCMHALTRLPTPVLLPYKPQVIRALAKPLDDKKRLVRKEAVSARGEWFLLGSPGS

What was measured:
[1] = biological target: T1, human primase (PriL-PriS heterodimer) (human, UniProt P49643;P49642); assay: ITC
T1 sequence 1: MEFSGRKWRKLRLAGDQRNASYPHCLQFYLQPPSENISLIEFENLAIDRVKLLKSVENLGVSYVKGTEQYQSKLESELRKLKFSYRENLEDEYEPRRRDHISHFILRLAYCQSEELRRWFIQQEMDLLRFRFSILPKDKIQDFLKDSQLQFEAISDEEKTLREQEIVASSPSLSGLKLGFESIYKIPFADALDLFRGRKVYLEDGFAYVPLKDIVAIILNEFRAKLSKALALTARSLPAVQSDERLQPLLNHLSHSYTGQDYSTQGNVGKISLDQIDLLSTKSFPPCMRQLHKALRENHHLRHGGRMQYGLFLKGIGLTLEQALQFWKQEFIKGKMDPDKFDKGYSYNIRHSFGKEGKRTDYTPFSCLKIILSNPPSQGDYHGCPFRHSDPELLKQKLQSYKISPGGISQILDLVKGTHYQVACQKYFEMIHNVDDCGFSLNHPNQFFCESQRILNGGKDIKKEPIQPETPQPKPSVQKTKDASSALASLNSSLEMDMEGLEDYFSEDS
T1 sequence 2: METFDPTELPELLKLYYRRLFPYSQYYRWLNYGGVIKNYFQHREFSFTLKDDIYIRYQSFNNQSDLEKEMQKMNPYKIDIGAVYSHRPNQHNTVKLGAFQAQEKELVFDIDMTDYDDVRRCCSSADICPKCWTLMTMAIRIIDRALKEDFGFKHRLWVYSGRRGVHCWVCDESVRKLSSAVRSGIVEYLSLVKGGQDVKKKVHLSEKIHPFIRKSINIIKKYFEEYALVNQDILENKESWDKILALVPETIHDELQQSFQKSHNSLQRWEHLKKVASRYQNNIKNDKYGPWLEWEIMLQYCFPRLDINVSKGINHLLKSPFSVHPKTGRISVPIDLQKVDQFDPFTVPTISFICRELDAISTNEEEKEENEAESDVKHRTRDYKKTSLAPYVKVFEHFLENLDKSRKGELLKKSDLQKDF

crystal structure = biological target: the molecule itself; assay: crystal structure
full-length mouse DNA2 = biological target: T2, full-length mouse DNA2 (mouse, UniProt Q6ZQJ5 1-1062); assay: cryo-EM structure
T2 sequence: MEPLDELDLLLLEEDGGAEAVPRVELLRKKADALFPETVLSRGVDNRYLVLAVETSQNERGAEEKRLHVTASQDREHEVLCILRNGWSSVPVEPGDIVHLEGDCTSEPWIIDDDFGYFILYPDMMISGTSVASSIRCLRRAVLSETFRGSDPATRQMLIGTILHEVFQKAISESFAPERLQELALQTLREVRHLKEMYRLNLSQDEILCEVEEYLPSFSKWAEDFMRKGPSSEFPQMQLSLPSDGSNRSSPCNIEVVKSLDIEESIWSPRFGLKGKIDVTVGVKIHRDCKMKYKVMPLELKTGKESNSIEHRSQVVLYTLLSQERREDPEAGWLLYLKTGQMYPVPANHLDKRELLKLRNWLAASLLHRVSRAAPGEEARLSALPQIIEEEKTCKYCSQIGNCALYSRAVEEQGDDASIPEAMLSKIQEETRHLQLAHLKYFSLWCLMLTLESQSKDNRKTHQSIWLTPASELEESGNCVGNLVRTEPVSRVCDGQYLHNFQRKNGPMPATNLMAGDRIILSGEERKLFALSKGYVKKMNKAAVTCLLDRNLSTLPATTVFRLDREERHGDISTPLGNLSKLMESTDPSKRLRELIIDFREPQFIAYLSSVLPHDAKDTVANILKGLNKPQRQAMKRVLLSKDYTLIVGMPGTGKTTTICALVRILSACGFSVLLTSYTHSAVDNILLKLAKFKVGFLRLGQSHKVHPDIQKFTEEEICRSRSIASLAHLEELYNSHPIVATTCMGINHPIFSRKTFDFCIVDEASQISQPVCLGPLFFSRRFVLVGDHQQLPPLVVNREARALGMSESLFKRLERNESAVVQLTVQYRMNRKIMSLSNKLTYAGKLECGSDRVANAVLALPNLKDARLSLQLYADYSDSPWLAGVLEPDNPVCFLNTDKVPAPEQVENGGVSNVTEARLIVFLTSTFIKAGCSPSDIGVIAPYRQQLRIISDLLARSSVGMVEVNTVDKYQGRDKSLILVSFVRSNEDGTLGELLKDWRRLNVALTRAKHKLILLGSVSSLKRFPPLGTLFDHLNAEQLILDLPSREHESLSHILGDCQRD

Binder | Kd [1] | further results
B1 | 5.4 µM | –
B2 | 0.832 µM | –
B3 | – | binding result (crystal structure): binds
B4 | – | binding result (full-length mouse DNA2): binds
